Results on 3 proteins are retold here after paper PMC9909464, “The human MRS2 magnesium-binding domain is a regulatory feedback switch for channel activity” (Life Science Alliance, 2023).

Data set [1] concerns the molecule itself. Nature of the data set: SEC-MALS; Superdex 200 Increase 10/300 GL, 20 mM Tris, 150 mM NaCl, 1 mM DTT, pH 8.0, ~10°C; no divalent cations; injected at 0.45-5 mg/ml; monomer to dimer. For orientation: Size exclusion chromatography separates by hydrodynamic size, large species first.
Data set [2] deals with the molecule itself. Description: dynamic light scattering; 0.5 mg/ml in 20 mM Tris, 150 mM NaCl, 1 mM DTT, 10 mM CHAPS, pH 8.0, 37°C; no divalent cations (5 mM MgCl2 or 5 mM CaCl2 gave no change); higher order oligomers.

B1: human MRS2 amino terminal domain, MRS2_(58–333) (domain or fragment, UniProt Q9HD23 58-333, looked up)
chain: DRLRVAGEVHRFRTSDVSQATLASVAPVFTVTKFDKQGNVTSFERKKTELYQELGLQARDLRFQHVMSITVRNNRIIMRMEYLKAVITPECLLILDYRNLNLEQWLFRELPSQLSGEGQLVTYPLPFEFRAIEALLQYWINTLQGKLSILQPLILETLDALVDPKHSSVDRSKLHILLQNGKSLSELETDIKIFKESILEILDEEELLEELCVSKWSDPQVFEKSSAGIDHAEEMELLLENYYRLADDLSNAARELRVLIDDSQSIIFINLDSHRN
notes: Cloned into pET-28a by NdeI and XhoI; also called MRS2 NTD; NTD; source: E. coli BL21 (DE3), purified (nickel-NTA, thrombin cleavage, SEC S200); not shown: His6, N-terminal, cleaved
As to B1, the “stoichiometry N” value in data set [1] stood at 2.

B2: MRS2_(58–333) D216A/D220A (domain or fragment, human, UniProt Q9HD23 58-333, looked up)
chain: DRLRVAGEVHRFRTSDVSQATLASVAPVFTVTKFDKQGNVTSFERKKTELYQELGLQARDLRFQHVMSITVRNNRIIMRMEYLKAVITPECLLILDYRNLNLEQWLFRELPSQLSGEGQLVTYPLPFEFRAIEALLQYWINTLQGKLSILQPLILETLAALVAPKHSSVDRSKLHILLQNGKSLSELETDIKIFKESILEILDEEELLEELCVSKWSDPQVFEKSSAGIDHAEEMELLLENYYRLADDLSNAARELRVLIDDSQSIIFINLDSHRN
notes: also called D216A/D220A MRS2 NTD double mutant; not shown: His6, N-terminal, cleaved
As to B2, in data set [1], the “stoichiometry N” value was 2.

B3: full-length human MRS2 excluding the mitochondrial targeting sequence, MRS2_(58–443) (natural protein, UniProt Q9HD23 58-443, looked up)
chain: DRLRVAGEVHRFRTSDVSQATLASVAPVFTVTKFDKQGNVTSFERKKTELYQELGLQARDLRFQHVMSITVRNNRIIMRMEYLKAVITPECLLILDYRNLNLEQWLFRELPSQLSGEGQLVTYPLPFEFRAIEALLQYWINTLQGKLSILQPLILETLDALVDPKHSSVDRSKLHILLQNGKSLSELETDIKIFKESILEILDEEELLEELCVSKWSDPQVFEKSSAGIDHAEEMELLLENYYRLADDLSNAARELRVLIDDSQSIIFINLDSHRNVMMRLNLQLTMGTFSLSLFGLMGVAFGMNLESSLEEDHRIFWLITGIMFMGSGLIWRRLLSFLGRQLEAPLPPMMASLPKKTLLADRSMELKNSLRLDGLGSGRSILTNR
notes: in CHAPS micelles in the assay; also called full-length MRS2; source: E. coli BL21 (DE3), purified as the NTD with 10 mM CHAPS in elution and SEC buffers; not shown: His6, N-terminal, cleaved
For B3, in data set [2], the binding result is given as “binds”.

Broadly, the stoichiometry N is the number of molecules, sites or subunits per partner or assembly.
